Laboratory results as given in patent publication US20150299277A1, “AGENT FOR TREATING OR PREVENTING SYSTEMIC INFLAMMATORY RESPONSE SYNDROME” (THE UNIVERSITY OF TOKYO, priority 2012, published 2015).

Target: histone H4 (Homo sapiens, UniProt P62805)
Assay: Dose-dependent precipitate formation (supernatant after centrifugation)
Format: binding
Conditions: PTX3 0, 12.5, 25, 50 μg/mL; histone H4 50 μg/mL
Protocol: Full-length PTX3 at each concentration (0, 12.5, 25, 50 μg/mL) was mixed with Calf Thymus Histones (50 μg/mL) or histone H4 (50 μg/mL), and the mixture was centrifuged. The obtained supernatant was subjected to immunoblotting using PPZ-1228 or SYPRO Ruby staining.

full-length PTX3: full-length human pentraxin 3 (1-381 amino acids, SEQ ID NO: 2), used tag-free or Myc- and His-tagged
precipitate formation with histone H4: precipitated as an insoluble product
